In assay [1] the target is T1, recombinant human protein antigen hu-IL-11-His tag (human, UniProt P20809 22-199).
T1 construct: Expressed in CHO, Ni column and Superdex75; not shown: His tag
T1 sequence (looked up): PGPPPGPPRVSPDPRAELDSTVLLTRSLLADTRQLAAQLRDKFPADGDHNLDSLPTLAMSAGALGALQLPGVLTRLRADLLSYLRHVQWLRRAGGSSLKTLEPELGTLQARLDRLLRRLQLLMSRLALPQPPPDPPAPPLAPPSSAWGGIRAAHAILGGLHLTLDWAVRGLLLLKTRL
In words: BLI, IL-11 (His tag) on Ni-NTA sensor, antibody as analyte. The procedure:
Bio-Layer Interferometry (BLI) was used for binding affinity determination. […] The analytes were diluted in 7 concentration gradients, the binding time was 60 s and the dissociation time was 1000 s. The buffer was 20 mM PBS, 0.15M NaCl, 0.1% BSA, 0.05% Tween 20, pH 7.
Background: BLI is a label-free optical method that tracks binding on a fibre tip over time.

For assay [2], the target named is T2, recombinant IL-6 (Sinobiological-10395-HNAE) (UniProt P05231 30-212). In words: ELISA, cytokine coated.
Assay [3] deals with T3, recombinant OSM (Genscript-z03132) (UniProt P13725 26-234, limits assumed).
T3 sequence (looked up): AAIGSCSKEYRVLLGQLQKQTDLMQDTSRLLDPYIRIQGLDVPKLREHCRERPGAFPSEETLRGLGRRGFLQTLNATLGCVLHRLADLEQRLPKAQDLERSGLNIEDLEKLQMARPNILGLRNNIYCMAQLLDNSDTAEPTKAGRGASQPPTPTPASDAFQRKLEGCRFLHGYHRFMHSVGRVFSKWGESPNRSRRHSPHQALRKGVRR
In words: ELISA, cytokine coated. In general terms: In an ELISA, binding on a coated surface is turned into a signal by an enzyme label.

Assay [4] addresses T4, recombinant IL-31 (Peprotech, 200-31) (UniProt Q6EBC2 24-164).
T4 sequence (looked up): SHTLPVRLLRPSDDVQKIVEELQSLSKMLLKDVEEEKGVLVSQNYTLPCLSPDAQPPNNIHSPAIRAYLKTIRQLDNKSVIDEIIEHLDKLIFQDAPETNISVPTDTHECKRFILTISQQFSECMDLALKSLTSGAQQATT
Nature of the assay: ELISA, cytokine coated.

Assay [5] concerns the target T5, recombinant CLC (R&D systems, 962-CL-050) (UniProt Q9UBD9 28-225).
T5 sequence (looked up): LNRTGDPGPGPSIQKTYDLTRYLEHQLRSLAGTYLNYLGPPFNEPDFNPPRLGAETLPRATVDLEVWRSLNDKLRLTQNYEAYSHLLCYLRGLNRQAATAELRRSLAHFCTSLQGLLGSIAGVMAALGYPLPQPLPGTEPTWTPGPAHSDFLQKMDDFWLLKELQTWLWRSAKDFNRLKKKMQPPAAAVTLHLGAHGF
In words: ELISA, cytokine coated.

In assay [6] the target is T6, recombinant CT-1 (R&D systems, 612-CD-010) (UniProt Q16619 2-201, limits assumed).
T6 sequence (looked up): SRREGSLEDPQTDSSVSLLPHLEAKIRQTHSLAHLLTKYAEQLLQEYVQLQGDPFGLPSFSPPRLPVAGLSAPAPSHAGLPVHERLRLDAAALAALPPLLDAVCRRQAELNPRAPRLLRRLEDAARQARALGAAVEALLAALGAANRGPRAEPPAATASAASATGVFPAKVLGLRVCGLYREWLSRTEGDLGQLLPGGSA
Nature of the assay: ELISA, cytokine coated.

The target of assay [7] is T7, recombinant IL-27 (R&D systems, 2526-IL-010) (UniProt Q8NEV9 29-243; Q14213 21-229).
T7 sequence (looked up) 1: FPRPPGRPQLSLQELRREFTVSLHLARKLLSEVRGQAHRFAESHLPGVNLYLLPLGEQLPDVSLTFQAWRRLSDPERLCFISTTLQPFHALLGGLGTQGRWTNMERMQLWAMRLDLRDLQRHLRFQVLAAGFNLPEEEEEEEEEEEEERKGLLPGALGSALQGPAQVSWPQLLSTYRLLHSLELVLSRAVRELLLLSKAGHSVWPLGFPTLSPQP
T7 sequence (looked up) 2: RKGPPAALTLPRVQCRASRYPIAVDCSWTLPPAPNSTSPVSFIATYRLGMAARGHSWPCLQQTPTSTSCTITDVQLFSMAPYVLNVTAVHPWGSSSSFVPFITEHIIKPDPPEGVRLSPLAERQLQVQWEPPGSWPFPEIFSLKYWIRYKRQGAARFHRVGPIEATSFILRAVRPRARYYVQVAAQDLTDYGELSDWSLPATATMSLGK
In words: ELISA, cytokine coated.

For assay [8], the target named is T8, recombinant LIF (Peprotech, 300-05) (UniProt P15018 23-202). Nature of the assay: ELISA, cytokine coated.
The target of assay [9] is T9, recombinant CNTF (R&D systems, 257-NT-010) (UniProt P26441 2-200).
T9 sequence (looked up): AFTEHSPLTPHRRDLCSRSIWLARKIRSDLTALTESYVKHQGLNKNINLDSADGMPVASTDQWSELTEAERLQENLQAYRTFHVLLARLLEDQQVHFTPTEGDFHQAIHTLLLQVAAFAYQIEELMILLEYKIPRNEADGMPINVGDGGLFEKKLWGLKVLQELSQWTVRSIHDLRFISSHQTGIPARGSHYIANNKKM
Nature of the assay: ELISA, cytokine coated.

Assay [10] addresses T2, recombinant IL-6 …. In words: ELISA, cytokine coated. This is another data set of the same source.
In assay [11] the target is T3, recombinant OSM (Genscript-z03132). In words: ELISA, cytokine coated. This is another data set of the same source.
Assay [12] addresses T4, recombinant IL-31 (Peprotech, 200-31). In words: ELISA, cytokine coated. This is another data set of the same source.
The target of assay [13] is T5, recombinant CLC (R&D systems, …). In words: ELISA, cytokine coated. The source holds these as a separate data set.
Assay [14] concerns the target T6, recombinant CT-1 (R&D systems, …). In words: ELISA, cytokine coated. This is another data set of the same source.
Assay [15] concerns the target T7, recombinant IL-27 (R&D systems, …). Nature of the assay: ELISA, cytokine coated. This is another data set of the same source.
Assay [16] deals with T10, recombinant IL-11 (LSBio, LS-G132887-10) (UniProt P20809 22-199).
T10 construct: also called IL-11 cytokine
T10 sequence (looked up): T1 sequence (looked up)
Nature of the assay: ELISA, cytokine coated.

Assay [17] addresses T8, recombinant LIF (Peprotech, 300-05). In words: ELISA, cytokine coated. This is another data set of the same source.
Assay [18] has as its target T9, recombinant CNTF (R&D systems, …). In words: ELISA, cytokine coated. This is another data set of the same source.
For another assay, the target named is T11, IL-11-Fc protein (UniProt P20809 22-199, limits assumed).
T11 construct: also called IL-11 recombinant protein with Fc tag; not shown: Fc tag
T11 sequence (looked up): T1 sequence (looked up)
Nature of the assay: flow competition: IL-11-Fc + antibody gradient on membrane-IL-11R CHO cells; 3-6A4 antibody. From the text: The secondary antibody used in the detection was a secondary antibody conjugated with a FITC fluorophore (Goat-anti-Fc-FITC) (Abcam, ab98529).

The target in assay [19] is T12, IL-11 protein (UniProt P20809 22-199, limits assumed).
T12 construct: also called IL-11 antigen
T12 sequence (looked up): T1 sequence (looked up)
In words: ELISA, monoclonal hybridoma supernatant on IL-11. From the text:
(§1) Cell lines with high secretion of specific antibody were selected for expanded culture and cryopreservation.

For assay [20], the target named is T12, IL-11 protein. Nature of the assay: flow competition: IL-11 + antibody on IL-11R cells; lower = more blocking.
Excerpt: as §1

T8 sequence (P15018 23-202 limits assumed): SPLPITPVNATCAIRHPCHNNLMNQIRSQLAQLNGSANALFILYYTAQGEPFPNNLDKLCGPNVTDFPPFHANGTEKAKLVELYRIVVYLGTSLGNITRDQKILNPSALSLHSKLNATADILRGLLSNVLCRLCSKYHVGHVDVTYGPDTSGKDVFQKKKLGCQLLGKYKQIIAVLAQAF

B1: 3-6A4 (antibody, human IgG1, kappa, V domains shown)
VH: QIQLVQSGPELKKPGETVKISCKASGYTFTTNGINWVKQAAGKGLKWMGWINTNTGEPTNAEELKGRFAFSLETSASTAYLQINNLKNEDAAIYFCAREGAFGLDYWGQGTSVTVSS
VL: SIVMTQSPKFLLVSAGDRVIITCKASQSVSNDVVWYQQKPGQSPKLLIYYGSHRNTGVPTRFTGSGYGTDFTFTISTVQAEDLAVYFCQQDFFSPWTFGGGTKLEIKR
notes: also called 3-6A4 antibody; 3-6A4 mAb
The Kd is the free concentration of one partner at which half of the binding sites on the other are occupied at equilibrium, for simple one-to-one binding. What is called koff is the rate constant with which the complex falls apart. In general, kon refers to the second-order rate constant of association. What is called IC50 is the concentration needed to halve the response being measured. For B1, the Kd in assay [1] is 0.0393 nM. Also, the koff in assay [1] was found to be 4.16e-05 s⁻¹. The kon in assay [1] came to 1.06e+06 M⁻¹ s⁻¹. The binding result in assay [2], in assay [3], in [4], in assay [5], in [6] and in assay [7] was “no binding” in each case. Besides, the binding result in assay [8] and in [9] was “no binding” in each case. Besides, the OD450 nm in [10] was determined as 0.039; in assay [11], 0.102; in assay [12], 0.088; in [13], 0.042; in assay [14], 0.041; in [15] it was 0.035. The OD450 nm in assay [16] was 1.88; in assay [17], 0.084; in assay [18], 0.064. For the same molecule, the IC50 with IL-11-Fc protein was ~7 µg/mL. Also, the OD450 in the assay with IL-11 protein [19] was 1.58. For the same molecule, the “FITC Mean” value with IL-11 protein [20] is 3040.

Source of the values: patent publication US20230257458A1 (SUNSHINE LAKE PHARMA, published 2023).
